Measured values from publication PMC11443449, “NudCL2 is required for cytokinesis by stabilizing RCC2 with Hsp90 at the midbody” (Protein & Cell, 2024).

Biological target: T1, His-RCC2 (human, UniProt Q9P258 1-522)
T1 construct: Regulator of chromosome condensation 2 (RCC2), human, full length, cloned by PCR from pSA-RCC2 into pET-28a; pET-28a (His-tag vector, Novagen); also called regulator of chromosome condensation 2; telophase disc protein of 60 kDa; source: Escherichia coli BL21, purified
Experiment: pull-down; GST pull-down with purified GST, GST-NudCL2 and His-RCC2; incubated in PBS at 4°C for 4 h, then glutathione-agarose beads for 2 h; Western blot
Conditions: both partners purified

T1 sequence (Q9P258 whole entry): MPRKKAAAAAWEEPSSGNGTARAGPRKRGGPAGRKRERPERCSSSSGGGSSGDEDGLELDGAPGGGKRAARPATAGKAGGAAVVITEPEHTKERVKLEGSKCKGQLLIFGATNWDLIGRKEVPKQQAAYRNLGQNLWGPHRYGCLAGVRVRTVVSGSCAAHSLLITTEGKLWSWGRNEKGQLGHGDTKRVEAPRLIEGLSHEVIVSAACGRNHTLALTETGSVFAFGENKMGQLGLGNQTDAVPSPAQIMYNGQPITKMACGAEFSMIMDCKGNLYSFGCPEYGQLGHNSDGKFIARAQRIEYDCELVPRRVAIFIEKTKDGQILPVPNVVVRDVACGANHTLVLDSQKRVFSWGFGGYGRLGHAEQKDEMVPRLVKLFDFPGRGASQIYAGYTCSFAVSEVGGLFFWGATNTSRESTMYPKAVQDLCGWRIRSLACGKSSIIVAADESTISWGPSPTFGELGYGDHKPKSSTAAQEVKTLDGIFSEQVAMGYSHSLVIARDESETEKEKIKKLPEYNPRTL

B1: GST-NudCL2 (natural protein, human, UniProt Q8WVJ2 1-157, looked up)
chain: MSAPFEERSGVVPCGTPWGQWYQTLEEVFIEVQVPPGTRAQDIQCGLQSRHVALSVGGREILKGKLFDSTIADEGTWTLEDRKMVRIVLTKTKRDAANCWTSLLESEYAADPWVQDQMQRKLTLERFQKENPGFDFSGAEISGNYTKGGPDFSNLEK
notes: NudC-like protein 2 (NudCL2, NudCD2), human; Li et al., 2019; Yang et al., 2010, 2019) for the vector; also called NudC-like protein 2; NudC domain-containing protein 2; source: Escherichia coli BL21, purified
- binding result: binds
